According to the supplement of paper PMC10201428:
± gives the standard deviation of the averaged measurements.

How the values were obtained:
[1] = system: VchCAST RNA-guided transposition machinery (E. coli BL21(DE3) host, lacZ target); assay: relative integration efficiency (T-LR orientation) vs wild-type transposon end (log2 (normalized fold change)); transposon end mutated: right end (5 bp flank + 75 bp right end); higher = more efficient transposition
Procedure, shortened: (§1)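 In E. coli BL21(DE3), a T7-driven effector plasmid was paired with a pUC57 mini-transposon donor containing 1549 left-end or 1849 right-end barcoded transposon variants. Cells grew on plates with 0.1 mM IPTG at 37°C for 18 h. Relative integration efficiency was derived from Illumina reads of genomic integration junctions against input plasmids, as a log-transformed output/input barcode fold change normalised to reference barcodes.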

[2] = system: VchCAST RNA-guided transposition machinery (E. coli BL21(DE3) host, lacZ target); assay: relative integration efficiency (T-RL orientation) vs wild-type transposon end (log2 (normalized fold change)); transposon end mutated: right end (5 bp flank + 75 bp right end); higher = more efficient transposition
Procedure, shortened: as §1

Row | Sequence | relative integration efficiency (log2) [1] | relative integration efficiency (log2) [2]
1 | ACATTTGTTGATACAACCATTAAATGGTAATTACACCCATAAATTGATAATTATCACACCCAATTTAACTATAACGCTCTGATCATAGTCAGACCAACATTGCTACGACCCGTATTCGCACCGACAC | 1.674 ± 0.011 | -1.34 ± 0.19
2 | ACATTTGTTGATACAACCATTAAATGGTAATTCCACCCAAAAATTGATAATTATCACACCCAATTTAACTATAACGCTCTGATCATAGTCAGACCAACATTGCTACGACCCGTATTCGCACCGACAC | 0.883 ± 0.18 | -2.14 ± 0.21
3 | ACATTTGTTGATACAACCATTAAATGGTAATTCCACCCAAATATTGATAATTATCACACCCAATTTAACTATAACGCTCTGATCATAGTCAGACCAACATTGCTACGACCCGTATTCGCACCGACAC | 0.805 ± 0.3 | -2.19 ± 0.42
4 | ACATTTGTTGATACAACCATTAAATGGTAATTCCACCCATAAATTGATAATTATCACACCCAATTTAACTATAACGCTCTGATCATAGTCAGACCAACATTGCTACGACCCGTATTCGCACCGACAC | 2.07 ± 0.25 | -1.26 ± 0.19
5 | ACATTTGTTGATACAACCATTAAATGGTAATTCCACCCATATATTGATAATTATCACACCCAATTTAACTATAACGCTCTGATCATAGTCAGACCAACATTGCTACGACCCGTATTCGCACCGACAC | 1.37 ± 0.13 | -1.52 ± 0.24
6 | ACATTTGTTGATACAACCATTAAATGTTAATTCCACCCATAAATTGATAATTATCACACCCAATTTAACTATAACGCTCTGATCATAGTCAGACCAACATTGCTACGACCCGTATTCGCACCGACAC | 1.73 ± 0.32 | -1.56 ± 0.23
7 | ACATTTGTTGATACAACCATTTAATGATAATAACACCCATAAAATGATAATTATCACACCCAATTTAACTATAACGCTCTGATCATAGTCAGACCAACATTGCTACGACCCGTATTCGCACCGACAC | 2.01 ± 0.13 | -1.14 ± 0.26
8 | ACATTTGTTGATACAACCATTTAATGATAATTACACCCATAAATTGATAATTATCACACCCATAAATTGATATTGCCTCTGATCATAGTCAGACCAACATTGCTACGACCCGTATTCGCACCGACAC | -0.232 ± 0.26 | -0.195 ± 0.052
9 | ACATTTGTTGATACAACCATTTTTTGATAATTACACCCATAAATTGATAATTATCACACCCATAAATTGATATTGCCTCTGATCATAGTCAGACCAACATTGCTACGACCCGTATTCGCACCGACAC | -0.748 ± 0.44 | -0.627 ± 0.016
10 | ACATTTGTTGATACAACCATTTTTTGATAATTACACCCATTTTATGATAATTATCACACCCATTTTATGATATTGCCTCTGATCATAGTCAGACCAACATTGCTACGACCCGTATTCGCACCGACAC | -1.01 ± 0.052 | -1.61 ± 0.23
11 | ACATTTGTTGATACAACCCGAAAATGATAATTACACCCATAAATTGATAATTATCACACCCATAAATTGATATTGCCTCTGATCATAGTCAGACCAACATTGCTACGACCCGTATTCGCACCGACAC | -3.67 ± 0.84 | -3.8 ± 0.095
12 | ACATTTGTTGATACAACCCGCCAATGATAATTACACCCATAAATTGATAATTATCACACCCATAAATTGATATTGCCTCTGATCATAGTCAGACCAACATTGCTACGACCCGTATTCGCACCGACAC | -3.85 ± 0.3 | -4.28 ± 0.2
13 | ACATTTGTTGATACAACCCTAAAATGATAATTACACCCATAAATGGATAATTATCACACCCAATTTAACTATAACGCTCTGATCATAGTCAGACCAACATTGCTACGACCCGTATTCGCACCGACAC | -0.403 ± 0.044 | -3.06 ± 0.29
14 | ACATTTGTTGATACAACCCTAAAATGATAATTACACCCATAAATGGATAATTATCACCCCCAATTTAACTATAACGCTCTGATCATAGTCAGACCAACATTGCTACGACCCGTATTCGCACCGACAC | -0.791 ± 0.11 | -3.24 ± 0.23
15 | ACATTTGTTGATACAACCCTAAAATGATAATTACACCCATAAATGGATCATTATCACACCCAATTTAACTATAACGCTCTGATCATAGTCAGACCAACATTGCTACGACCCGTATTCGCACCGACAC | -1.52 ± 0.39 | -3.87 ± 0.32
16 | ACATTTGTTGATACAACCCTAAAATGATAATTACACCCATAAATGGATCATTATCACCCCCAATTTAACTATAACGCTCTGATCATAGTCAGACCAACATTGCTACGACCCGTATTCGCACCGACAC | -1.44 ± 0.036 | -4.22 ± 0.58
17 | ACATTTGTTGATACAACCCTAAAATGATAATTACACCCATAAATTCATAATTATCACACCCAATTTAACTATAACGCTCTGATCATAGTCAGACCAACATTGCTACGACCCGTATTCGCACCGACAC | -1.75 ± 0.15 | -4.59 ± 0.4
18 | ACATTTGTTGATACAACCCTAAAATGATAATTACACCCATAAATTCATAATTATCACCCCCAATTTAACTATAACGCTCTGATCATAGTCAGACCAACATTGCTACGACCCGTATTCGCACCGACAC | -1.67 ± 0.083 | -4.15 ± 0.4
19 | ACATTTGTTGATACAACCCTAAAATGATAATTACACCCATAAATTCATCATTATCACACCCAATTTAACTATAACGCTCTGATCATAGTCAGACCAACATTGCTACGACCCGTATTCGCACCGACAC | -1.57 ± 0.23 | -4.59 ± 0.18
20 | ACATTTGTTGATACAACCCTAAAATGATAATTACACCCATAAATTCATCATTATCACCCCCAATTTAACTATAACGCTCTGATCATAGTCAGACCAACATTGCTACGACCCGTATTCGCACCGACAC | -1.49 ± 0.085 | -4.72 ± 0.23
21 | ACATTTGTTGATACAACCCTAAAATGATAATTACACCCATAAATTGATAATTATCACCCCCAATTTAACTATAACGCTCTGATCATAGTCAGACCAACATTGCTACGACCCGTATTCGCACCGACAC | 1.5 ± 0.089 | -1.61 ± 0.24
22 | ACATTTGTTGATACAACCCTAAAATGATAATTACACCCATAAATTGATCATTATCACACCCAATTTAACTATAACGCTCTGATCATAGTCAGACCAACATTGCTACGACCCGTATTCGCACCGACAC | 0.357 ± 0.061 | -3 ± 0.31
23 | ACATTTGTTGATACAACCCTAAAATGATAATTACACCCATAAATTGATCATTATCACCCCCAATTTAACTATAACGCTCTGATCATAGTCAGACCAACATTGCTACGACCCGTATTCGCACCGACAC | 0.404 ± 0.19 | -2.81 ± 0.49
24 | ACATTTGTTGATACAACCCTAAAATGATAATTACACCCCTAAATTGATAATTATCACACCCCTAAATTGATATTGCCTCTGATCATAGTCAGACCAACATTGCTACGACCCGTATTCGCACCGACAC | -3.01 ± 0.1 | -4.68 ± 0.11
25 | ACATTTGTTGATACAACCTAAAAATGATAATTACACCCATAAATTGATAATTATCACACCCATAAATTGATATTGCCTCTGATCATAGTCAGACCAACATTGCTACGACCCGTATTCGCACCGACAC | -0.819 ± 0.32 | -0.616 ± 0.0067
26 | ACATTTGTTGATACAACCTATTAATGATAATTACACCCATAAATTGATAATTATCACACCCATAAATTGATATTGCCTCTGATCATAGTCAGACCAACATTGCTACGACCCGTATTCGCACCGACAC | -1.46 ± 0.16 | -0.905 ± 0.052
27 | ACATTTGTTGATACAACCTTAAAATGATAATTACACCCTTAAATTGATAATTATCACACCCTTAAATTGATATTGCCTCTGATCATAGTCAGACCAACATTGCTACGACCCGTATTCGCACCGACAC | -0.505 ± 0.42 | -1.34 ± 0.22
